Measured values published in publication PMC3659105, “Profiling Epidermal Growth Factor Receptor and Heregulin Receptor 3 Heteromerization Using Receptor Tyrosine Kinase Heteromer Investigation Technology” (PLoS ONE, 2013).

Tests used:
HER3 = target: T1, HER3 (Homo sapiens, UniProt P21860); assay: Ligand-induced BRET between HER3/Rluc8 and Grb2/Venus (+ pcDNA3); format: cell-based
T1 construct: used to replace the C terminus of the full-length constructs (with or without Rluc8); host or cells: HEK293FT
T1 sequence (P21860 20-1342): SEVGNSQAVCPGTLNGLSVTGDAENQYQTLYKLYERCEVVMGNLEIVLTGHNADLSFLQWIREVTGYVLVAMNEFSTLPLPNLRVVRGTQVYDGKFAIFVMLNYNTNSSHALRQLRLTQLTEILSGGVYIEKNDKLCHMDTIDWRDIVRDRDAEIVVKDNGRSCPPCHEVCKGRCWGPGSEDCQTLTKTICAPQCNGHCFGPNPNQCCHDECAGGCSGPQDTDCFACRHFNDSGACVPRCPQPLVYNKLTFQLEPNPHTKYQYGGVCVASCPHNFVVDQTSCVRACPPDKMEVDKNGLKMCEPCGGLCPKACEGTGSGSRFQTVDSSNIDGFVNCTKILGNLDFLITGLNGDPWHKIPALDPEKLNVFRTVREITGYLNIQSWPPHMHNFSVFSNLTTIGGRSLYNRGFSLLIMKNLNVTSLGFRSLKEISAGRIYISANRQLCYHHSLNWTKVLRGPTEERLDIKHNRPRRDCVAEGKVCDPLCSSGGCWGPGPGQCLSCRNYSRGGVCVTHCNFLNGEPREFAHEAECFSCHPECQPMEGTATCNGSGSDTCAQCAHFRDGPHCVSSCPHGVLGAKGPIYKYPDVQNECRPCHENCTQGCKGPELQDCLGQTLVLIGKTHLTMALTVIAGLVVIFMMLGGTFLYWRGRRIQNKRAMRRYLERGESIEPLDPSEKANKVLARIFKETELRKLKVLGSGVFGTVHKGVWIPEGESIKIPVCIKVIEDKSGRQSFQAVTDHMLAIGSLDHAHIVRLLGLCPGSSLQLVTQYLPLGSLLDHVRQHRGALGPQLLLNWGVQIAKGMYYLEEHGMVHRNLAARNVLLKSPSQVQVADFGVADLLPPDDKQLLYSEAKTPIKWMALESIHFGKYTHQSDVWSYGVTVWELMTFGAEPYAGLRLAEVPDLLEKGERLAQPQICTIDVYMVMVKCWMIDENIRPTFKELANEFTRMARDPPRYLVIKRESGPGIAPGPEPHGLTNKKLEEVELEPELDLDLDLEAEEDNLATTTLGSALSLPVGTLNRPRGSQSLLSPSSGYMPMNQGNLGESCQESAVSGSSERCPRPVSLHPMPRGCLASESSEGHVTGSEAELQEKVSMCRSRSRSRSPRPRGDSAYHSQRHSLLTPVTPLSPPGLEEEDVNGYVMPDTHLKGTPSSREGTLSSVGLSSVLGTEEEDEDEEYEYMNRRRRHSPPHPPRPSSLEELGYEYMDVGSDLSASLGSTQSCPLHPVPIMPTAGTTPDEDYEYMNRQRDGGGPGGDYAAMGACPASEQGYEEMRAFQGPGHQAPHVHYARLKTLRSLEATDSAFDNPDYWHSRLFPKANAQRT
Experimental: (§1) HEK293FT cells (Life Technologies) were maintained at 37°C in 5% CO2 and complete media (Dulbecco's modified Eagle's medium (DMEM) containing 0.3 mg/ml glutamine, 100 IU/ml penicillin and 100 µg/ml streptomycin (GIBCO BRL, Carlsbad, CA, USA)) supplemented with 10% foetal calf serum (FCS) and 400 µg/ml Geneticin (Gibco). Transient transfections were carried out 24 h after seeding about 550,000 cells/well of a 6-well plate. Genejuice (Merck, Kilsyth, Australia) transfection reagent was used according to the manufacturer's instructions. Cells were harvested with 0.05% Trypsin-EDTA (Gibco).
HEK293FT cells were transiently transfected with cDNA encoding a RTK fused to Rluc8 (RTK/Rluc8) and Grb2 fused to Venus (Grb2/Venus), along with a second RTK that was untagged with respect to BRET signaling, or empty vector (pcDNA3). […] BRET measurements were taken at 37°C using the VICTOR Light plate reader with Wallac 1420 software (PerkinElmer, Glen Waverley, Victoria, Australia). Filtered light emissions were sequentially measured at 400–475 and 520–540 nm. The BRET signal was calculated by subtracting the ratio of 520–540 nm emission over 400–475 nm emission for a vehicle-treated cell sample from the same ratio for a second aliquot of the same cells treated with agonist, as described previously, [35]. […]
Data were analyzed using Prism 5 graphing software (GraphPad, La Jolla, CA, USA). […]

EGFR-HER3 heteromer = target: T2, EGFR-HER3 heteromer (Homo sapiens, UniProt P00533+P21860); assay: RTK-HIT BRET between HER3/Rluc8 and Grb2/Venus with untagged EGFR co-expressed; format: cell-based; conditions: HEK293FT cells, about 25 minutes of agonist stimulation
T2 construct: used to replace the C terminus of the full-length constructs (with or without Rluc8); host or cells: HEK293FT
Experimental: as §1
Following initial titration of cDNA amounts (data not shown), two ratios were selected for the heteromer combinations shown in Figure 2. […] BRET measurements were taken at 37°C using the VICTOR Light plate reader with Wallac 1420 software (PerkinElmer, Glen Waverley, Victoria, Australia). Filtered light emissions were sequentially measured at 400–475 and 520–540 nm. The BRET signal was calculated by subtracting the ratio of 520–540 nm emission over 400–475 nm emission for a vehicle-treated cell sample from the same ratio for a second aliquot of the same cells treated with agonist, as described previously, [35].

## COc1cc2ncnc(Nc3cccc(Cl)c3)c2cc1OC.Cl [AG-1478, AG-1478 hydrochloride, reference compound]
HER3; increasing concentrations of AG-1478, pre-treated or not with 20 nM EGF or HRG
  effect on BRET: no effect

## EGF: epidermal growth factor, ligand selective for EGFR
HER3; HER3/Rluc8 + Grb2/Venus without EGFR, 1 µM agonist, kinetic
  agonist-induced BRET signal: no or little BRET signal

## HRG: Heregulin-β1, ligand of HER3
EGFR-HER3 heteromer
  pEC50: 7.46±0.14 (n = 5)
